# Results from article PMC12248280.
# Target: hDPP4-Fc (human DPP4 residues 39 to 766 fused at its C terminus to the Fc domain of human IgG) (human) (UniProt P27487)
# Assay: BLI
# Chain of UniProt P27487 (P27487 39-766): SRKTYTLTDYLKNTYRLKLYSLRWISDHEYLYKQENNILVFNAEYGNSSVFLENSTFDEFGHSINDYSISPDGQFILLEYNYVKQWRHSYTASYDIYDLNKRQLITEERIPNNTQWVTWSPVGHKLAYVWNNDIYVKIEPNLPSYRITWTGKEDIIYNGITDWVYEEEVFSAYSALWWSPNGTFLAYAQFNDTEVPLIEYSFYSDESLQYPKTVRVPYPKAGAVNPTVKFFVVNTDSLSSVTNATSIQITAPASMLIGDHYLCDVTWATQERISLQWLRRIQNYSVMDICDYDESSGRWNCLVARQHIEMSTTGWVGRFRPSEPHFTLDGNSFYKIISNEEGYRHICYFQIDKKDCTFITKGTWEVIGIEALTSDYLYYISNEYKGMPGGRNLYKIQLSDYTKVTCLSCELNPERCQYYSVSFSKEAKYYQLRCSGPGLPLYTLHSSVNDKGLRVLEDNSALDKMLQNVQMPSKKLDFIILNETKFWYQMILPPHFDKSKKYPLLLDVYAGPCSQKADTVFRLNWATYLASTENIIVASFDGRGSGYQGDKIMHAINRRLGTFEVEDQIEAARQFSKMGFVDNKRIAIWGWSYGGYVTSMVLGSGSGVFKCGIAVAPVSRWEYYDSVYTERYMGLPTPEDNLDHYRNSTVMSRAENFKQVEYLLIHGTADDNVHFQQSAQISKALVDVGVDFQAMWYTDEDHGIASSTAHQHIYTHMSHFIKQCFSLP
substance,measurement,value
"GD-BatCoV-S (GD-BatCoV S-trimer, GD-BatCoV-S-6P) (domain or fragment)",Kd,5.3 nM
